Measured values from article PMC13544220, “Glycemic and bodyweight effects of GIPR coding variation reflect differences in surface expression and intrinsic functional impairment” (Science Advances, 2026).

What was measured:
[1] = system: wild-type and variant SNAP-GIPR; assay: Single-concentration GIP cAMP response by HTRF in INS-1 cells; type: cell-based, human; settings: Fig S3E, mean
Experimental: All variants were tested in parallel on each occasion to control for transfection efficiency differences between experiments.

[2] = system: wild-type and variant SNAP-GIPR; assay: Surface SNAP-GIPR expression (SNAP-tag labelling) in AD293 cells; type: cell-based, human; settings: for AD293 Surface: Fig S3E, mean; for Surface SNAP-GIPR expression: sheet Fig 1C;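 as to all read-outs here: scaled to the experimental average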
Summary of the method: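 Surface GIPR is quantified from wide-field images after labelling intact transfected cells with a membrane-impermeant SNAP probe at 500 nM for 10 min at room temperature. Specific signal, corrected for nontransfected cells, is normalized to the experiment-wide average or to wild-type.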

[3] = system: wild-type and variant SNAP-GIPR in Gipr-/- mouse islets; assay: Glucagon secretion from Gipr-/- mouse islets transduced with GIPR adenoviruses; type: cell-based; settings: Fig S6C, Gipr-/- mouse islets
Experimental: (§1) Isolated islets used for insulin secretion assays were treated in 1.5-ml microcentrifuge tubes. Eight-ten islets were used per well with two-three technical replicates per condition. […] At the end of the treatment, supernatants containing the secreted insulin or glucagon were collected, centrifuged at 1000g for 5 min, and transferred to fresh tubes. […] The lysates were sonicated 3× for 10 s in a water bath and centrifuged at 10,000g for 10 min, and the supernatants were collected. The samples were stored at −20°C until the insulin or glucagon concentrations were determined using an Insulin Ultra-Sensitive HTRF Assay kit (62IN2PEG, Revvity) or an HTRF Glucagon Detection Kit (62CGLPEG, Revvity) respectively, according to the manufacturer’s instructions. GraphPad Prism 9.0 was used for the generation of the standard curve and sample concentration extrapolation. The total insulin or glucagon content was calculated by adding the secreted insulin to the insulin content of the lysates, and secretion was reported as the percentage release of total. The percent secretion of islets treated with agonist was normalized to that of islets treated with vehicle and reported as a fold change.

[4] = system: wild-type and variant SNAP-GIPR in wild-type mouse islets; assay: Insulin secretion from wild-type mouse islets transduced with GIPR adenoviruses; type: cell-based; settings: Fig 6F
Experimental: as §1, with “The samples were stored at −20°C until the insulin or glucagon concentrations were determined using an Insulin Ultra-Sensitive HTRF Assay kit (62IN2PEG, Revvity) or an HTRF Glucagon Detection Kit (62CGLPEG, Revvity) respectively, according to the manufacturer’s instructions.” left out

[5] = system: wild-type and variant SNAP-GIPR in Gipr-/- mouse islets; assay: Insulin secretion from Gipr-/- mouse islets transduced with GIPR adenoviruses; type: cell-based; settings: Fig 6D, Gipr-/- mouse islets
Experimental: as §1

[6] = column repeated, paired with cAMP 100 nM

B1: WT (protein, UniProt P48546 22-466, looked up)
Gastric inhibitory …: RAETGSKGQTAGELYQRWERYRRECQETLAAAEPPSGLACNGSFDMYVCWDYAAPNATARASCPWYLPWHHHVAAGFVLRQCGSDGQWGLWRDHTQCENPEKNEAFLDQRLILERLQVMYTVGYSLSLATLLLALLILSLFRRLHCTRNYIHINLFTSFMLRAAAILSRDRLLPRPGPYLGDQALALWNQALAACRTAQIVTQYCVGANYTWLLVEGVYLHSLLVLVGGSEEGHFRYYLLLGWGAPALFVIPWVIVRYLYENTQCWERNEVKAIWWIIRTPILMTILINFLIFIRILGILLSKLRTRQMRCRDYRLRLARSTLTLVPLLGVHEVVFAPVTEEQARGALRFAKLGFEIFLSSFQGFLVSVLYCFINKEVQSEIRRGWHHCRLRRSLGEEQRQLPERAFRALPSGSGPGEVPTSRGLSSGTLPGPGNEASRELESYC
[1]
  INS-1 cAMP (100 nM): 1.606
[2]; [6]
  AD293 Surface: 1.574
[2]; paired with cAMP 100 pM
  AD293 Surface: 1.574
[2]; replicate 1
  Surface SNAP-GIPR expression: 1.413
[2]; replicate 2
  Surface SNAP-GIPR expression: 1.272
[2]; replicate 3
  Surface SNAP-GIPR expression: 1.88
[2]; replicate 4
  Surface SNAP-GIPR expression: 1.444
[2]; replicate 5
  Surface SNAP-GIPR expression: 1.509
[2]; replicate 6
  Surface SNAP-GIPR expression: 1.344
[2]; replicate 7
  Surface SNAP-GIPR expression: 1.891
[2]; replicate 8
  Surface SNAP-GIPR expression: 1.028
[2]; replicate 9
  Surface SNAP-GIPR expression: 1.591
[2]; replicate 10
  Surface SNAP-GIPR expression: 1.397
[2]; replicate 11
  Surface SNAP-GIPR expression: 1.544
[2]; replicate 12
  Surface SNAP-GIPR expression: 1.527
[2]; replicate 13
  Surface SNAP-GIPR expression: 1.575
[2]; replicate 14
  Surface SNAP-GIPR expression: 1.588
[2]; replicate 15
  Surface SNAP-GIPR expression: 1.562
[2]; replicate 16
  Surface SNAP-GIPR expression: 1.285
[2]; replicate 17
  Surface SNAP-GIPR expression: 1.371
[2]; replicate 18
  Surface SNAP-GIPR expression: 1.43
[2]; replicate 19
  Surface SNAP-GIPR expression: 1.701
[2]; replicate 20
  Surface SNAP-GIPR expression: 1.486
[2]; replicate 21
  Surface SNAP-GIPR expression: 1.598
[2]; replicate 22
  Surface SNAP-GIPR expression: 1.477
[2]; replicate 23
  Surface SNAP-GIPR expression: 1.449
[2]; replicate 24
  Surface SNAP-GIPR expression: 1.623
[2]; replicate 25
  Surface SNAP-GIPR expression: 1.241
[2]; replicate 26
  Surface SNAP-GIPR expression: 1.004
[2]; replicate 27
  Surface SNAP-GIPR expression: 2.237
[2]; replicate 28
  Surface SNAP-GIPR expression: 2.105
[2]; replicate 29
  Surface SNAP-GIPR expression: 1.748
[2]; replicate 30
  Surface SNAP-GIPR expression: 1.831
[2]; replicate 31
  Surface SNAP-GIPR expression: 1.807
[2]; replicate 32
  Surface SNAP-GIPR expression: 1.314
[2]; replicate 33
  Surface SNAP-GIPR expression: 1.406
[2]; replicate 34
  Surface SNAP-GIPR expression: 1.597
[2]; replicate 35
  Surface SNAP-GIPR expression: 1.369
[2]; replicate 36
  Surface SNAP-GIPR expression: 1.658
[2]; replicate 37
  Surface SNAP-GIPR expression: 2.437
[2]; replicate 38
  Surface SNAP-GIPR expression: 2.543
[2]; replicate 39
  Surface SNAP-GIPR expression: 1.55
[2]; replicate 40
  Surface SNAP-GIPR expression: 1.34
[2]; replicate 41
  Surface SNAP-GIPR expression: 1.346

B2: E354Q (protein)
chain: RAETGSKGQTAGELYQRWERYRRECQETLAAAEPPSGLACNGSFDMYVCWDYAAPNATARASCPWYLPWHHHVAAGFVLRQCGSDGQWGLWRDHTQCENPEKNEAFLDQRLILERLQVMYTVGYSLSLATLLLALLILSLFRRLHCTRNYIHINLFTSFMLRAAAILSRDRLLPRPGPYLGDQALALWNQALAACRTAQIVTQYCVGANYTWLLVEGVYLHSLLVLVGGSEEGHFRYYLLLGWGAPALFVIPWVIVRYLYENTQCWERNEVKAIWWIIRTPILMTILINFLIFIRILGILLSKLRTRQMRCRDYRLRLARSTLTLVPLLGVHQVVFAPVTEEQARGALRFAKLGFEIFLSSFQGFLVSVLYCFINKEVQSEIRRGWHHCRLRRSLGEEQRQLPERAFRALPSGSGPGEVPTSRGLSSGTLPGPGNEASRELESYC
[3]; replicate 1
  Glucagon secretion, ratio G0.5 + GIP / G0.5: 0.6783
[3]; replicate 2
  Glucagon secretion, ratio G0.5 + GIP / G0.5: 1.215
[3]; replicate 4
  Glucagon secretion, ratio G0.5 + GIP / G0.5: 1.495
[4]; replicate 1
  Insulin secretion, ratio G11 + GIP / G11: 0.7071
[4]; replicate 2
  Insulin secretion, ratio G11 + GIP / G11: 0.9219
[4]; replicate 3
  Insulin secretion, ratio G11 + GIP / G11: 0.7382
[4]; replicate 4
  Insulin secretion, ratio G11 + GIP / G11: 0.5337
[4]; replicate 5
  Insulin secretion, ratio G11 + GIP / G11: 0.4605
[1]
  INS-1 cAMP (100 nM): 1.46
[5]; replicate 1
  Insulin secretion, ratio G11 + GIP / G11: 1.276
[5]; replicate 2
  Insulin secretion, ratio G11 + GIP / G11: 0.2979
[5]; replicate 3
  Insulin secretion, ratio G11 + GIP / G11: 1.231
[5]; replicate 4
  Insulin secretion, ratio G11 + GIP / G11: 1.587
[2]; [6]
  AD293 Surface: 0.7482
[2]; paired with cAMP 100 pM
  AD293 Surface: 0.7482
[2]; replicate 1
  Surface SNAP-GIPR expression: 0.8065
[2]; replicate 2
  Surface SNAP-GIPR expression: 0.9885
[2]; replicate 3
  Surface SNAP-GIPR expression: 0.6105
[2]; replicate 4
  Surface SNAP-GIPR expression: 0.8642
[2]; replicate 5
  Surface SNAP-GIPR expression: 0.9388
[2]; replicate 6
  Surface SNAP-GIPR expression: 0.763
[2]; replicate 7
  Surface SNAP-GIPR expression: 0.751
[2]; replicate 8
  Surface SNAP-GIPR expression: 0.7772
[2]; replicate 9
  Surface SNAP-GIPR expression: 0.3807
[2]; replicate 10
  Surface SNAP-GIPR expression: 0.8583
[2]; replicate 11
  Surface SNAP-GIPR expression: 0.7525
[2]; replicate 12
  Surface SNAP-GIPR expression: 0.8043
[2]; replicate 13
  Surface SNAP-GIPR expression: 1.071
[2]; replicate 14
  Surface SNAP-GIPR expression: 0.6911
[2]; replicate 15
  Surface SNAP-GIPR expression: 0.7162
[2]; replicate 16
  Surface SNAP-GIPR expression: 0.6632
[2]; replicate 17
  Surface SNAP-GIPR expression: 0.6439
[2]; replicate 18
  Surface SNAP-GIPR expression: 0.5804
[2]; replicate 19
  Surface SNAP-GIPR expression: 0.6207
[2]; replicate 20
  Surface SNAP-GIPR expression: 0.742
[2]; replicate 21
  Surface SNAP-GIPR expression: 0.7392
[2]; replicate 22
  Surface SNAP-GIPR expression: 0.5026
[2]; replicate 23
  Surface SNAP-GIPR expression: 0.762
[2]; replicate 24
  Surface SNAP-GIPR expression: 0.7507
[2]; replicate 25
  Surface SNAP-GIPR expression: 0.8473
[2]; replicate 26
  Surface SNAP-GIPR expression: 0.7374
[2]; replicate 27
  Surface SNAP-GIPR expression: 0.7405
[2]; replicate 28
  Surface SNAP-GIPR expression: 0.7355
[2]; replicate 29
  Surface SNAP-GIPR expression: 0.6896
[2]; replicate 30
  Surface SNAP-GIPR expression: 1.162
[2]; replicate 31
  Surface SNAP-GIPR expression: 0.7254
[2]; replicate 32
  Surface SNAP-GIPR expression: 0.7792
[2]; replicate 33
  Surface SNAP-GIPR expression: 0.8108
[2]; replicate 34
  Surface SNAP-GIPR expression: 0.9519
[2]; replicate 35
  Surface SNAP-GIPR expression: 0.6078
[2]; replicate 36
  Surface SNAP-GIPR expression: 0.6218
[2]; replicate 37
  Surface SNAP-GIPR expression: 0.8918
[2]; replicate 38
  Surface SNAP-GIPR expression: 0.4883
[2]; replicate 39
  Surface SNAP-GIPR expression: 0.768
[2]; replicate 40
  Surface SNAP-GIPR expression: 0.6348
[2]; replicate 41
  Surface SNAP-GIPR expression: 0.707
